Assay results published in patent US20030100501A1 (CASE WESTERN RESERVE UNIVERSITY, published 2003).
Square brackets hold non-standard residues; d marks the D form. Ends that are not written are not given here. Nle = CCCC[C@H](N)C(=O)O

Tests used:
[1] = molecular target: mutant G551D CFTR (UniProt P13569 1-1480, limits assumed); assay: cell-based or functional assay
[2] = molecular target: wild-type CFTR (cystic fibrosis transmembrane conductance regulator) (UniProt P13569 1-1480, limits assumed); assay: cell-based or functional assay
Sequence of wild-type CFTR (cystic fibrosis transmembrane conductance regulator) (P13569 whole entry): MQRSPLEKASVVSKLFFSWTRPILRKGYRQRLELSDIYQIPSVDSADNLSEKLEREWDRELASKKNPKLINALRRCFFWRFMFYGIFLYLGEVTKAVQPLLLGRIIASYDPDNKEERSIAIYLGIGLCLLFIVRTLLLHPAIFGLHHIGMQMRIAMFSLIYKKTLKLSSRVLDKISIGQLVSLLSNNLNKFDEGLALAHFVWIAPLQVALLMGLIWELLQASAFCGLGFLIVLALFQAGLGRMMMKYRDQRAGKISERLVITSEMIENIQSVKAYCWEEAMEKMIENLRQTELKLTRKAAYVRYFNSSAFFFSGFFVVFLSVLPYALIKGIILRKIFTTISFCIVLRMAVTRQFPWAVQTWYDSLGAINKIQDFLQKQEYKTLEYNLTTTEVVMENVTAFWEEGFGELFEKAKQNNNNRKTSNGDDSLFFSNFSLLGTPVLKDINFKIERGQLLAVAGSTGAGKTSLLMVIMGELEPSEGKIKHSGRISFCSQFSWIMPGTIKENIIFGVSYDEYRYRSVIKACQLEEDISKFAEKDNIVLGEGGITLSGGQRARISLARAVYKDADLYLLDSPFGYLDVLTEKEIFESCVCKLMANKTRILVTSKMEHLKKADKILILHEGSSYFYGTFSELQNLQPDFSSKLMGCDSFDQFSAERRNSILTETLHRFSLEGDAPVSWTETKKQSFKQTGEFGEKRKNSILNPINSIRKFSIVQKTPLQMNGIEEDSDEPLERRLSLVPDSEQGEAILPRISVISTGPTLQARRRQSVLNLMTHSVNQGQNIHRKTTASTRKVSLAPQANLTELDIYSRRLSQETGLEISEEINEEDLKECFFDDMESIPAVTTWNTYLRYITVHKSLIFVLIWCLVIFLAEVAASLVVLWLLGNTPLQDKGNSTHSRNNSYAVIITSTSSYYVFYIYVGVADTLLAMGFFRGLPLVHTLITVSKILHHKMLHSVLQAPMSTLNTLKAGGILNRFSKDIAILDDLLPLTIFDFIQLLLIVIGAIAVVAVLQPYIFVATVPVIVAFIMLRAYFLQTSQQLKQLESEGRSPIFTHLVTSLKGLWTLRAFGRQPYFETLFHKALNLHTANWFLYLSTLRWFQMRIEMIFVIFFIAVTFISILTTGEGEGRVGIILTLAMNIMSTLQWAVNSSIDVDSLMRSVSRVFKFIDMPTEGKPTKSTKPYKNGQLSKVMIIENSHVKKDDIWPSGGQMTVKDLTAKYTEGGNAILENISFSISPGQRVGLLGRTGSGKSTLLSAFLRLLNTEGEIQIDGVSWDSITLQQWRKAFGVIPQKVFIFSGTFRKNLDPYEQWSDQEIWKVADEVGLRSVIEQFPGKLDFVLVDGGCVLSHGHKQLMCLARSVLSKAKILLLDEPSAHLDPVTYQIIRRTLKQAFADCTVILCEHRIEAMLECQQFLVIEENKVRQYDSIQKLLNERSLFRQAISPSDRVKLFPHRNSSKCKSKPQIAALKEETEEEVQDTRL

Sequence of mutant G551D CFTR (P13569 whole entry G551D): as the sequence (P13569 whole entry) above, with G551D counted along it

Binder: Ac-GLEISEQINQQNLKQSFFND[Nle]E [Q4N2NEG2 polypeptide]
- open probability in planar lipid bilayer [1]: ~3 fold
- open probability (Po) of CFTR channels in planar lipid bilayer [2]: 2 fold
- open probability of single wt-CFTR channels in planar lipid bilayer, 4 µM peptide, 5 experiments [2]: ~2 fold
